Test results as given in the supplement of paper PMC9732359.
± gives the uncertainty stated by the source.

Test: protein stability index of a GFP-peptide fusion (yeast GPS) (PSI 1-4); higher = more stable; sorted into four equal gates, so the index is relative within each strain
Settings: doa10∆
How it was run: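 Yeast carrying a pooled library were grown to mid-log phase in leucine-free medium. Each library plasmid expresses Cherry and has a tiled 17-residue yeast protein peptide fused downstream of GFP. Cells were sorted into four equal gates by GFP/Cherry ratio, and plasmids from each gate were PCR-amplified, Illumina-sequenced and assigned to strains by barcode. Summing, across gates, the read frequency times the gate number gave each peptide's protein stability index.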

Sequence	protein stability index
NPSNTPDKDYLLSIPIS [FAS1]	2.89 ± 0.078
NQEDLFELVHHFFQIDG [YML103C/NUP188]	2.97 ± 0.079
NQLDGFDDRGDVKVIMA [RPT2]	3.47 ± 0.17
NQNSDMKKKLELISYRN [SRB8]	2.91 ± 0.048
NQVTDSSQLNKLTDEQS [SIR3]	2.71 ± 0.063
NRAEGPEELARILQQLK [RGR1]	3.21 ± 0.11
NRDRSFQLLEPLSTYNK [PGD1]	3 ± 0.051
NREAATKEVESNIITKS [DIS3]	2.79 ± 0.11
NRRLVYSRILKSMGRKC [YCG1]	1.41 ± 0.12
NRSAYDSKNTPNVFDKD [YDL088C/ASM4]	2.41 ± 0.1
NRSWDHAYNITFNNQDK [RPO31]	2.75 ± 0.073
NRWHSESWANQLTVCGA [FAS2]	1.93 ± 0.04
NSAQNNSTTSGGLFGNK [YGR119C/NUP57]	3.25 ± 0.13
NSDDCMMEEIINVVIKA [ECM29]	3.31 ± 0.14
NSDLEGKIRGVEDDLVT [SMC2]	3.14 ± 0.094
NSEKFVFLLTTRAGGLG [ISW2]	1.67 ± 0.26
NSFKLFKAEKLQIVNQL [RPC17]	2.82 ± 0.077
NSFTKGNVFSPIDNNII [SNU114]	2.98 ± 0.093
NSGVGSAKGPEIIPLQD [MED6]	3.35 ± 0.16
NSKVDMKYDIFAKFIHH [IRR1]	2.39 ± 0.083
NSKVNKLNIETMRKISS [DSN1]	2.5 ± 0.17
NSLTKYPDLKAFHNNLK [MED1]	2.9 ± 0.11
NSLTVDGNNANYIYAGY [RPN14]	2.87 ± 0.088
NSNPTSNVFGSNNSTTN [YJL041W/NSP1]	3.23 ± 0.079
NSPNYFVAKLAAQIFGS [COR1]	1.84 ± 0.044

Sequence	protein stability index
NSQTVSGTPITQTESKK [SNF2]	2.67 ± 0.05
NSTTSGGLFGNKVGSTG [YGR119C/NUP57]	3.17 ± 0.13
NSYWLIILLGVLEDCRH [ITC1]	1.42 ± 0.061
NTCYLNATLQALYRVND [UBP6]	2.25 ± 0.07
NTGPSTGGLFGAKPAGS [YGL172W/NUP49]	3.43 ± 0.12
NTIGSVHGKAPMLMANN [SSN3]	1.54 ± 0.18
NTNNNDTIATSATPNAA [GAL11]	2.7 ± 0.046
NTSLPPSILEDSLENNE [FAS1]	2.89 ± 0.11
NTTLQDNVSFIEEAKSI [REC8]	3.1 ± 0.084
NVDRLYKLNVRSNDPQS [NUT2]	3.22 ± 0.11
NVEKYPTFVEFILIPLY [SNU114]	2.33 ± 0.052
NVELLNCIRILADKLEN [YIL149C/MLP2]	1.22 ± 0.069
NVESAGAMTPEEIFFKS [RPC40]	3.04 ± 0.074
NVIKTGIRIISLTYKKI [RPN3]	1.83 ± 0.1
NVISSKDWELEARFWHL [YDL116W/NUP84]	3.46 ± 0.096
NVKEEETVAKSKNAERK [RPS8A]	3.07 ± 0.038
NVLNQIHQILLPTNPTL [CSE2]	2.65 ± 0.036
NVVIDEAVEIPVNSADG [SME1]	2.97 ± 0.084
NVVLVTNDRLNREAATK [DIS3]	2.33 ± 0.086
NVVVKWQGKPVFIRHRT [RIP1]	3.35 ± 0.25
NWWHSEFEIPVSFNGFK [BRR2]	1.49 ± 0.098
NYESVFTYNKFLLNQNK [YIL149C/MLP2]	1.47 ± 0.045
NYGEKEERKRWAMQGIS [PCI8]	2.92 ± 0.14
NYSSLPSPYKTTVYRYS [YAR002W/NUP60]	2.04 ± 0.045
PAALDGLMKSYKIPKVM [ESC2]	2.76 ± 0.068

Sequence	protein stability index
PAANESEVANNGLIISW [RRP42]	1.43 ± 0.15
PAFSFGTKSNEKKDSGS [YJL041W/NSP1]	3.17 ± 0.075
PAGKQVEISLVNGAKNL [FAS1]	2.63 ± 0.27
PAGMNETPKSNNSLSYH [ITC1]	2.08 ± 0.14
PAINYTKLKNAVQNESV [QCR2]	1.9 ± 0.064
PAPSIPSTGFKFSLPFE [YLR335W/NUP2]	2.53 ± 0.1
PAPSKPVIDYELKEITS [BRR2]	3.15 ± 0.079
PARSSSLRSNVVVAETS [YAR002W/NUP60]	2.2 ± 0.04
PAWFNNPRKRAIPNSII [YMR153W/NUP53]	2.62 ± 0.084
PCNNRGKHSIGLIWYLL [RPS0A]	2.56 ± 0.058
PDMMVDSFTMPNISHSN [SNF2]	3.28 ± 0.11
PDSCNMQEKAAHIAKNL [YCS4]	2.15 ± 0.15
PDTAIDSQMDEASGTPD [GRR1]	2.97 ± 0.062
PDTKISSAAILGLGIAF [RPN1]	2.28 ± 0.043
PELLDSLAILGMNLLSN [SWI1]	2.1 ± 0.061
PENLQVTSEKYPFDKLE [BRR2]	2.86 ± 0.085
PEVVELCQKSPVMADLN [FAS2]	2.63 ± 0.074
PFDKKSNSALFRAVGEG [FAS1]	2.92 ± 0.074
PFDMGGYFIINGSEKVL [RPB2]	2.83 ± 0.14
PFMSYSPQLTAIIGLKS [SNF12]	1.67 ± 0.055
PFNFTVTLFQMAILLLY [CDC53]	1.65 ± 0.045
PFPQYPAGMNETPKSNN [ITC1]	2.7 ± 0.1
PGGASGLGVLTHRNKDG [FAS1]	3.35 ± 0.067
PGGYFIVNGTEKVILVQ [RET1]	1.63 ± 0.12
PGIISITSLQDSSSQCI [YMR129W/POM152]	2.86 ± 0.076

Sequence	protein stability index
PGLEFLDDTTIPVGLMA [MCD1]	1.99 ± 0.057
PGTGKTLLARAVAHHTD [RPT6]	1.78 ± 0.05
PGVNREINSEMCHIVRK [GRR1]	3.01 ± 0.096
PGWDFETEEIDPELLRS [RPL5]	3.34 ± 0.13
PIEVDEELLQLFLNNFV [IRR1]	2.93 ± 0.063
PIKEAKIKHGSVTEIPL [YMR129W/POM152]	2.9 ± 0.046
PIMLRSKNCYLSEATES [RPB2]	1.23 ± 0.075
PINGNEAESQWYIEKVI [CSI1]	2.47 ± 0.081
PINLHPSKLVITKLHLD [RPL26A]	1.74 ± 0.058
PIQSKVFHAAFEGDSNM [BRR2]	2.91 ± 0.055
PITASMAAALPNPTPSM [PGD1]	2.47 ± 0.083
PITNKERSLAVKYINFG [RPC31]	3.02 ± 0.14
PIVLLNTLRKCYPQFAE [UBP6]	1.25 ± 0.11
PIYYQKLKHMVLDKMHA [RET1]	1.58 ± 0.076
PKATSSAGAVFKSSVEM [YOR098C/NUP1]	2.89 ± 0.12
PKDSSSTFREWKNLVLK [YJR042W/NUP85]	3.29 ± 0.11
PKEEEPILAPSVKDYRP [RPS3]	2.8 ± 0.059
PKIETNVYVGMTDMQIQ [ISW2]	2.96 ± 0.091
PKNVPTSKWLNSITSGG [YDL116W/NUP84]	2.35 ± 0.072
PKPLKFLRPTYPDLCSI [RPN1]	2.61 ± 0.07
PKSGIDIFVYLTYDKDL [MTR3]	1.9 ± 0.062
PKSLNSNININVNNNNI [SWI1]	3.03 ± 0.14
PKTELTKGDSTPVQPDL [YAR002W/NUP60]	3.16 ± 0.055
PLIIVSDGQSRVKDIHL [RET1]	2.88 ± 0.3
PLIKKIKYEPRFEKAVK [SMC3]	2.75 ± 0.072

Same assay, conditions: pdr5∆

Sequence	protein stability index
NPSNTPDKDYLLSIPIS [FAS1]	3.1 ± 0.079
